Experiment [1] has as its target venus-PreIQ3-IQ-A1.3 F[-2]A (rat). Briefly: FRET or BRET. (Bioluminescence resonance energy transfer reports proximity on the nanometre scale.)
The target of experiment [2] is venus-PreIQ3-IQ-A1.3 (wild type) (rat) (UniProt P27732). Briefly: FRET or BRET.
Chain of UniProt P27732 (P27732 whole entry): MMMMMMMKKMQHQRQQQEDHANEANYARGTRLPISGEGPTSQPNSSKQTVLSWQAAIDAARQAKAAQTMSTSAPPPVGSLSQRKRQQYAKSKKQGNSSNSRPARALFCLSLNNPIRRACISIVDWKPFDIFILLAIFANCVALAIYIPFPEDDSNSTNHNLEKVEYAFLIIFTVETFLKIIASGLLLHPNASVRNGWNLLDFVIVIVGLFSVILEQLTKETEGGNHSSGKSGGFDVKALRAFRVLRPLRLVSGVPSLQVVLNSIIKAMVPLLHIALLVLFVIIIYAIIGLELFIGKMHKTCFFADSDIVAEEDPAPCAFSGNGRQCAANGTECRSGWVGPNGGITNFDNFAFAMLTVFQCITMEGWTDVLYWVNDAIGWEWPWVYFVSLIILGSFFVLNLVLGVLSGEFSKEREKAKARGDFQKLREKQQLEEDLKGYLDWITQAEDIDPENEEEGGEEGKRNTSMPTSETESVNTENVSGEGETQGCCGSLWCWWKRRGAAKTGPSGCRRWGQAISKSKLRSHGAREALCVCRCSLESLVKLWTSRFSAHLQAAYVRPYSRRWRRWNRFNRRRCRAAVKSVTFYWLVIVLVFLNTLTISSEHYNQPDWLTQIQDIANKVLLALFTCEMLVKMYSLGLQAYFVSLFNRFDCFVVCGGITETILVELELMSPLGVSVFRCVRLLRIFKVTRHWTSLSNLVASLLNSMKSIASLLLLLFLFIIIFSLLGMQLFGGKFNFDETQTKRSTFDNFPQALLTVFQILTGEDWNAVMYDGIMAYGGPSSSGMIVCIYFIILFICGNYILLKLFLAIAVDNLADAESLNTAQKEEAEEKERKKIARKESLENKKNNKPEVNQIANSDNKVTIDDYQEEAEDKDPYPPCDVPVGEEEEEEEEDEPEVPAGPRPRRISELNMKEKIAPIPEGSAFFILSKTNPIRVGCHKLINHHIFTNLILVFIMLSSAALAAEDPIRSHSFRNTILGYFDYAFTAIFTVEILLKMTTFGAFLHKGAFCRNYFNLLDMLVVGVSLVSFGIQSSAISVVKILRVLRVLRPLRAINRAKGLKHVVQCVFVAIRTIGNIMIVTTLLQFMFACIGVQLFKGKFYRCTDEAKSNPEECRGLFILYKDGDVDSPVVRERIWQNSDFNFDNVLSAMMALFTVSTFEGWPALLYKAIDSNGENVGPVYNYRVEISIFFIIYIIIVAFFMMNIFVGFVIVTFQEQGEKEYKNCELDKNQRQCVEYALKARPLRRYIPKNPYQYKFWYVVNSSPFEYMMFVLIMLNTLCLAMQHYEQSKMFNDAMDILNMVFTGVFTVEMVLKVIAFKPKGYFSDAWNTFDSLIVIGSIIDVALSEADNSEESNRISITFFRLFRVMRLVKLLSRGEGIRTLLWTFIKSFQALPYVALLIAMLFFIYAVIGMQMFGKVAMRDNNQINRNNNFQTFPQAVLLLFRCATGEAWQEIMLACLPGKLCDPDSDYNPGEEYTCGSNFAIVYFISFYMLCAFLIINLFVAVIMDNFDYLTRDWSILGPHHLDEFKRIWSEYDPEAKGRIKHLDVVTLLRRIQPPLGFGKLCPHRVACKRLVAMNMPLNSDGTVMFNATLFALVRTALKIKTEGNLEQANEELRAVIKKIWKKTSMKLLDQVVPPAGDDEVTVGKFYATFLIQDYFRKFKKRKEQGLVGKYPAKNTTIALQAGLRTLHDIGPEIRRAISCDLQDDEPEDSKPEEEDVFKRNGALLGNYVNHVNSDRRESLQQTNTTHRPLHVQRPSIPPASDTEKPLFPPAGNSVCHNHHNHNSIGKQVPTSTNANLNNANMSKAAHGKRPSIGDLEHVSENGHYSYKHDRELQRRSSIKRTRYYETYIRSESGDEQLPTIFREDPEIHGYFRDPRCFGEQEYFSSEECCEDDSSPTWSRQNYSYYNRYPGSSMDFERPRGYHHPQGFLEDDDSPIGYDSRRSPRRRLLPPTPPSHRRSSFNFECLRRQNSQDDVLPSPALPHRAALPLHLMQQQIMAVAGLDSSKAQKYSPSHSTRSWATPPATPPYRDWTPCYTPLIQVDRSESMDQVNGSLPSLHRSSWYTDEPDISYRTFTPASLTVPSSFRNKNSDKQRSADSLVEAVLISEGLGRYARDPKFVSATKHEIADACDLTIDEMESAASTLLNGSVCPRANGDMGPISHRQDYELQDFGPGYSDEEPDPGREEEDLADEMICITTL

As for “Cerulean-ICDI1.4 (wild type) (from UniProt O60840 1-1977) (domain or fragment)”, the figures for the Ka in experiment [1] and in experiment [2] were 5.8e+06 M⁻¹ and 2.14e+07 M⁻¹, respectively.

For the origin of these results see article doi:10.1101/2021.01.06.425618.
